Experimental data from US9504755B2, “Multi-arm polymeric alkanoate conjugates” (Nektar Therapeutics, priority 2008, dated 2016).

Columns and labels:
Assay type in all cases: in vitro ADME
Conditions in all cases: 37° C.
Stability in rat plasma = experiment: Stability in rat plasma
Method: (§1) The objective of the study was to assess the stability of 4-ARM-PEG20K-BA-docetaxel in mouse, rat, dog, and human plasma.
(§2) 4-ARM-PEG20K-BA-docetaxel was spiked ([…]; 60 μM) into heparinized, pooled male mouse, rat, and dog plasma; mixed sex pooled human plasma; and phosphate buffered saline. Triplicate samples were incubated at 37° C. for 0, 15, 30, 60, 120, and 240 min. Aliquots were removed at each timepoint and analyzed for disappearance of 4-ARM-PEG20K-BA-docetaxel and appearance of docetaxel using the validated dog plasma analytical method.

[1] = Stability in mouse plasma
Method: as §1, §2

Stability in dog plasma = experiment: Stability in dog plasma
Method: as §1, §2

## 4-ARM-PEG20K-Butanoate-Linked Docetaxel Conjugate [4-ARM-PEG20K-BA-DOC]
Stability in rat plasma; 60 μM
  Conjugate remaining at 4 hr (%): 64%
  Docetaxel released at 4 hr (%): 20%
Stability in rat plasma; 4 hr
  Mass balance (%): 84%
[1]; 60 μM
  Conjugate remaining at 4 hr (%): 72%
  Docetaxel released at 4 hr (%): 20%
[1]; 4 hr
  Mass balance (%): 92%
Stability in dog plasma; 60 μM
  Conjugate remaining at 4 hr (%): 93%
  Docetaxel released at 4 hr (%): 3%
Stability in dog plasma; 4 hr
  Mass balance (%): 95%
